# B1: MIF4G domain-containing protein (Homo sapiens), A9UHW6 (parent)
# chain: MGEPSREEYKIQSFDAETQQLLKTALKDPGAVDLEKVANVIVDHSLQDCVFSKEAGRMCYAIIQAESKQAGQSVFRRGLLNRLQQEYQAREQLRARSLQGWVCYVTFICNIFDYLRVNNMPMMALVNPVYDCLFRLAQPDSLSKEEEVDCLVLQLHRVGEQLEKMNGQRMDELFVLIRDGFLLPTGLSSLAQLLLLEIIEFRAAGWKTTPAAHKYYYSEVSD
# Variants of: B1
# Conditions: with slbp_human SLBP
row,Variant,effect of a mutation on the interaction
1,R77A;N81A;Q84A,decreasing interaction strength
